The results in this text go back to patent US11781164B2, “Demethylation of reticuline and derivatives thereof with fungal cytochrome P450” (priority 2017, dated 2023).

The labels stand for the following.
B1: CYPDN27: cytochrome P450 homolog A0A077WLY1 from Lichtheimia ramosa, codon-optimized (protein, listed as Licthheimia ramosa)
chain: MPSLIPKNASDAIEQYISRLKTMDRRHMGIIAGSVAVVSLYTFYRHLTRSRDDIPLVPYTWPLIGSTPSFNRDPVAFVEKWSQEYGPVFRAHLQGRIQTIIAAEYVRDIFMNSDFDFLFAVNKRFDPHLLADIDDNTFTTEMLRKVVMKLTTQLKSYTPRAVEFLDVGRNEFLSHFPAGPVHLPHLYPLIQHMVGKASAAIFAGTKLASNPEVVESFKNITLEVGAEIAVDSVFLERYWGLNRFRMWLMGKFSKSMKRHHRVLKDALRPEIKDRIEASSDPSRERPDDMLQIIIESYYTERRGESVDDLTEDLVKWLISLIFAAIHTTSENSTVVLYRILSKPDVVEELLEEQREVLVRHGISPDEKDPSKMFTGAVIKDLVKLDSACREGMRMRNDYLTLGHTYLGKKPITLSCGAVIKPGEDVIINTWYNHRNNKIQKIQGDDYSNYNPFRFVGSDRQAARIGDDFLIFGEGKHACPGRWFALQEMKTIISFLIRDYKMAPEGPITFPKNPKMTLPMGQVILESRH
B2: CYPDN14: cytochrome P450 homolog A0A168T1R5 from Absidia glauca, codon-optimized (protein, listed as Absidia glauca)
chain: MPIVNALQTYSYEEPINFLKDVWLNRLFPAGTSNRKKAALLTLGATIALVCRTVYRLYRVPRSLRHIPAVGYVAMLRSILKREDATTRAMTIFQPAMKKGNGVFLVNFPLEWSIYVAEPLAAKAVLMKSDNFPKSIDFIHALGKENPVVKFFGTDNVALVNGEQWKRQRKVMNPAFHRAMPVQMFGRLLQKGFKNIEEQGHQVAALDFFQRLTLDALGHAVFGFDFGALNDREAVWTVTYESIRLNLRNPLAFAFPSMDWLLKYVIPGRLQMAASVDKLNGLMMDMIKEKRIKLLESQAQDDTPENEKDLLTLMLEAEQRGEGTTNDEELRSNMAVFFLAGHETTANTMSFCLYNLAMDKSVQEKARQEVIKVLGDEPEDVLPRNEELRQIPYLDMILKENLRRFGPASMLNARKTVEDFDMNGTFIPKNTSVIVETNALHHNPEVWKNPEQFDPERFAPGGEHETSHEGMAWLPFSSGSRGCLGMNFSMAEQRVFLAMLLRKYEWDLPKDSIHKNGIQIGNFQNACPDSLKIQFTPRY
B3: CYPDN20: cytochrome P450 homolog A0A163A6R1 from Phycomyces blakesleeanus, codon-optimized (protein, listed as Phycomyces biakesleeanus)
chain: MCLFFCKKVYDFTAVPYELKKFPNIPFFYFVKSILSVESVENRTKRLVLPLLHKNNGFYVSRFPFYWTVFTTDPDAVQYLLMKGEIFPKDTRFTSAVSKDSLIIRLFGSSNVAFISGEPLKHQCRTMNPAFRRTAPVNIFGRLIPDMFRLIDKSDGDILIVNLLQRMTFDALGKALFGFDFKTMKEDNSAWMTAYSDAMSGVTAPVLNIIPSLEYILRYFYPNYTKAKNGVDKLNRLILELVNKKKQELEESMPQSCSNNNNGDTDGDAYDQEKDLLTLILEAEMKDNKSSGSDDLRANMATFIMAGHETTASSVSFCIYHMVINKDVRDKARREALDILGYDDFISPPTFDECKRVNYINMVVKEALRLCTPGGLLFERIATEDVFLSGVFIPKGTRISVDIEALHKNPAIWKNPSVFDPERFSKGGEHEQHRGITWAPFSDGNRKCLGINFSMTEQQVILLMLLKHYEWDLSENSIHNNGMVYDNVFSFAPKTLSIKFHKRH
B4: CYPDN13: cytochrome P450 homolog A0A1X2HZE4 from Absidia repens, codon-optimized (protein, listed as Absidia repens)
chain: MGTSYKRKAAYVTIGAAVVLLFRSIYGFYYVPKSLRHLPCVGYRELAYSIMKREDAATRARSVLGQAIKEKNGAFVAKFPMEWTVFLTSPRTIQAVLLKSDKFPKTYDMFHALGESSPFVKFLGIKNVGFSNGDDWKRQRKVMNPAFQRSVPVEMFGKLMQKGILAIEKQGYEVRALDFFERITLDSIGIFLFSFDFGSLDNPNSVWSLTYDTIRRGIKNPALTVFPQLDCLLKYVTPGRRHLDQCVTKLNNLLMEVAKEKRRQVQSPSDKLIPDSEKDLLTLILEAELRGDGSASDEELRGNLALFFLAGHETTASAMCFCLYNLAMNKDIQEKARKEVLEVLGDEPVDVRPDIQDLKQFRYMDMILHENLRRFGPAAMLLPRKSEEDFVADGILIPKNTPVVIDLNTMHHNPQVWKDPEIFDPERFAPGGEYEANGEKMAWLPFSSGSRVCIGKSFSMAEQRVFLSMLLKKYEWDFPDDSIHRDGIKMENFENNAPESLSFRFHPRY
B5: CYPDN18: cytochrome P450 homolog A0A0C9MNJ6 from Mucor ambiguus, codon-optimized (protein, listed as Mucor ambiguus)
chain: MYSTASYNQTLERVVSVVRKNKTSYIGMAILCVVLQQIYSSFAVPPKHLRRFPKVSFMELMKSFYKKESVMNRNKRLVTPLTNAGHGFYISRIPLDWTIYVTDPIAAKTLLLKTDNFPKSHAIFGALGESSPVVKFMGNENVAVSNDILWRKQRKIMNPAFHRSQPVKVFGGVMPDLFALIDQDPEHVFITPKIKSFALDALGLSAFGFDFQSLKNDPEGWTSKYNTVVSSLFNPFVNLFAKCDFLIKYISAERRRVIKVTDEFNAMLSNLADKRRQEIMNGEKKNIAENEKDLLTLMIEADTREGVETTTTELRHNMAIFFLAGHDTTANTLALCLYQLAKHKHVQKKARQEVLDILGDDPWDVAPSLEDLKKLNYLNMVIKENLRRNGPVDNLMSRDTQQDINLNGTFIPKGSKVVINVASIHLNPKIWHNPESFIPERFEQGGEFDSHDGFTWLPFSNGSRQCLGLNFSLTEQRVALCMLLKRYEIDIPKDSIHYDEIVFDKAFTFAPQSLELSFKKRY
B6: CYPDN22: cytochrome P450 homolog XM_023609077 from Rhizopus microsporus, codon-optimized (protein, listed as Rhizopus microsporus)
chain: MAISFLYREGPAERLKRLKLPAMRKGNGFYLSRVPFCWTVYVANPIAAKQLLLKAENFPKSHFLMVGKDSPFVQFLGPDNVVNSNGENWKKQRKVMNPAFHRSMPVKTIAGVVLTLFAVIDKYKGKVPVTSTMQEFTLDVLGLAIFNFDFGSLKGDAKKWRAEYKLVMLFDPVTNVFTGFDFLLRYIYPKRIKGANAVNNLNKLFDQLVKQKRLEVQSGVHANKPQNEKDLLTLMLEAEQRGEAMTTDMEMRHNVAVFFLAGHESTAHVLSFTLYFLAKNKYVQQKLREEVSRVMGRKSVDVAPTLEELRQMEYLYAVIKESLRLCSIFDVLILRDAVEDMYLDDTFIPKGTRITIDVSAIQRDPKVWNNPDDFIPERFMEGGEAEGHEGMTWLPFGGGARQCIGMNFSLTEQKVALAMLVQRYDIDVPKDSIHYEDIAYERPFYLAPQSLELTFTKLH
B7: CYPDN16: cytochrome P450 homolog A0A1X2HFU1 from Syncephalastrum racemosum, codon-optimized (protein, listed as Syncephalastrum racemosum)
chain: MTQLTTPDTLGKLLAIYRQTPASRRASWIGWAVAATVIASQLYKTLVPPSNLPNLPTINYFRLLSSFLRRDSPTIRSQEILIPALEKHEQKKAYLAKLPLTWTVFLVDPIAAKIFLMKMDIFPKIKETIDALDSQHPIVEFFGRENVAISVGEAWRNQRKVMNPAFRRAMPISIFGNLMFKVFKNIEENKPVIAIDLMQAFTLDALGRAAFSFDFHALDDQHSIWVETYEIIRQSLRNPANAVLARYNFITKYLMPGRAKQKAATHKLNSLLLEMASRKRAELEKHPELRELPDSEKDLLTLMVEADMESGDDPTSAELLRANLSVFFLAGHDTTANTLSFWLYHMAVNKDVQAKAREEVIKILGDGPEDVMPTADQCKQMTYLDCIIKENLRLLGPASQLIPRMATEDVDLNGIFIPKGTRVTVDMHTMHYSPMLWKDPGVFKPDRFLDEGEHSQHRGLAWLPFSSGGRQCLGMNFSLTEQRVVMSMMLRKYTWELPADSIHRDGVKLNEVNTVAPRTLSIIFQQRYH
B8: CYPDN24: cytochrome P450 homolog A0A077WFB8 from Lichtheimia ramosa, codon-optimized (protein, listed as Lichtheimia ramosa)
chain: MDNQTWSSVPGASFWKGKLVSGHYVREVFLNNDFDFLKGTGKRFDTLLLTDTTTQDVDIEVFRTVVMKHLTKEMKAYTPRVVQHLTAGGDEKLGDAKEPQELVHLFPLLQHMVAKASASIFVGTELASDDDVVETCKNIAIDIGSELGPGSYIMDAFPSLARLRMWYIGKFGKAINKHRQHLLRALGPVIDKRLAAAEKGGDWDRPQDILQDIIETINLTLDNPKRHILPVKWLLALFFASIHTTSENSTIVLYRIMQNPEIIDVLLEEQNQVLEKHYGSNIDYSDTTKLFTGEVIKELVKLDSLCREAMRARNSYLELPHTYVGKSRITLSCGAIIEPGHDVLINMWGNHRDAKIQRDTIGDHHDFKPFRFVGLDRQSTKIGDDFLMFGQGRHACPGRWFAIQEIKTIVSVLIRYYKLTPNGPITFPTHPRMPMPMGQVIIQRRQ
B9: CYPDN21: cytochrome P450 homolog XM_018432503 from Phycomyces blakesleeanus, codon-optimized (protein, listed as Phycomyces biakesleeanus)
chain: MLAKKVNGYAGFTLDAIQTIYFNRAIKLVRPPKALSHIPHVPYFSYMSSLIKKENTISRNKRFANKLFEDPESNGLYLRPNVKGWEVVVTRPEDAKKLLFKSDIFPKADFTSGIDGTILSKFSRGPNLLFTTGAHWKAQRMVANPAFHRSAPVKLFGELTQKLFRVMDNRANKTVDITRLMEAWALDAIGLAGFDFDFNAIENPNSSWVRIYERVDKALVHPFYSFFPKADKYLLWVLPNRKQAHTDLDIFLKMIDNVIIAKKKALHENKSNKHLENSEKDLLTLMLESEAKGSTLSAKELRSNMCVFFAAGHETTANSLAYAIYFMAVNPDVQCKAREEAFKVLGDAQEDIMPTIEQTKSMDYINAVIKETLRSHSPALGTFARKATKDTELGGVLIPKDTMISMDIFNLHHNPNVWNNPDEFDPSRFLPGGEAEKQINNGFSWIPFGTGARQCIGMNFSLIEQRVMLSMMLRKFAWSLPEDSIHKDYLHTTNLVISSAKDLNINFEKLY

This data set has as its system thebaine. Put plainly: Demethylation of thebaine by new cytochrome P450 fungal and plant homologs co-expressed with CPRs in S. cerevisiae. As to conditions: 0.5 mM thebaine, SC or DELFT media pH 7, 72 h, 30° C.; co-expressed with Cel_CPR_co, Tp_CPR_5866, Tp_CPR_DN10898 or POR1.
With B1, the Northebaine production result was “+”.
To B2 belongs “+”; to B3, “+”.
The result for B4 reads “+”.
The result for B5 reads “+”; that for B6, “+”.
Consider B7, for which the Northebaine production result is “+”.
Take B8: the Northebaine production result was “+”.
As to B9, the Northebaine production entry is on record as “+”.
